# In the supplement of paper PMC10126150:
# ± gives the standard deviation of the averaged measurements.
# Test system: ATP
# Test: switch fluorescence ratio, 500 uM ATP over buffer (Cy3 cluster intensity, sum of 5 cycles each) (fold (ratio)); higher = stronger signal-on switching upon ATP binding; sequences stand for … in TCGTCGGCAGCGTCAGATGTGTATAAGAGACAGTTTTTTTTTTTTTTTTTTTTTTTTT…TC
# Settings: aptamer strand: ATP DNA aptamer (quencher-CACCTGGGGGAGTATTGCGGAGGAAGG + anchor), 100 nM annealed; ATP concentration: 500 uM
# Outline: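 For every switch-domain sequence, the fluorescence ratio is the mean of per-cluster values, each being summed target-cycle Cy3 intensity over summed buffer-cycle Cy3 intensity. Clusters outside 100-1000 RFU were excluded. On a modified Illumina MiSeq flow-cell, the Cy3-labelled switching-strand clusters were annealed to 100 nM quencher-labelled ATP aptamer, imaged in selection buffer and then after 15 min with 500 uM ATP at 22 °C. Five such cycles were run, with NaOH stripping and re-annealing between them.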
# 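Further: ATP exposure 15 min at 22 °C before imaging.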
row,Sequence,switch fluorescence ratio
1,CTAACGCGCA,1.11 ± 0.0043
2,TATTCGGTTT,0.9889 ± 0.0048
3,GATAGATTAG,0.998 ± 0.0038
4,ACCTGGATTG,1.03 ± 0.017
5,CAGCATGTTT,0.988 ± 0.024
6,GATAGACGGA,0.99171 ± 0.00018
7,TGTTTGTTT,1.03 ± 0.025
8,CAGTCTGCAG,0.991 ± 0.031
9,AAGAGGACGA,1.01 ± 0.028
10,TTAAAAACCT,1.65 ± 0.62
11,GGCCCGGAGC,1.24 ± 0.013
12,TGGGAAAAAG,0.972 ± 0.039
13,GAGAGGAGTA,0.967 ± 0.037
14,CTTGTTAGCG,0.9807 ± 0.0076
15,AGGAGGGATG,0.985 ± 0.022
16,ATAACGGGGA,0.999 ± 0.015
17,CTGATCTGTT,0.998 ± 0.024
18,CCAGGCACTG,1.03 ± 0.021
19,TATTAGAATC,0.994 ± 0.026
20,AAAGGATATC,1.036 ± 0.0028
21,CCCTGAGGGT,1.01 ± 0.023
22,TAAGCTGGGG,0.9861 ± 0.0052

row,Sequence,switch fluorescence ratio
1,GCATTGAGGG,1.04 ± 0.047
2,TTGCTTTTGC,1 ± 0.023
3,ACATGCTCCC,1.73 ± 0.13
4,ACGTAGCTTT,1.37 ± 0.36
5,TACGGTTTAG,1 ± 0.048
6,AAATCAAGTG,0.97516 ± 1.6e-05
7,GCGTTTGGAC,1.056 ± 0.01
8,AGAGGGGGGT,0.99 ± 0.022
9,ATAGCTACGC,1.035 ± 0.003
10,TTAGGCTGGG,1.02 ± 0.013
11,TGGGATATGG,0.996 ± 0.029
12,TGTTAGGGTT,1.01 ± 0.04
13,GGGGCGGGTG,0.993 ± 0.039
14,ATTAGTTGTA,1 ± 0.025
15,TCATAATAGC,0.977 ± 0.028
16,CCACCATATT,1.07 ± 0.039
17,TATGGAGTTT,1.01 ± 0.013
18,GCAGGGTTTC,0.997 ± 0.024
19,GTTAAAGATA,0.9918 ± 0.00016
20,ATAATTGGG,0.978 ± 0.097
21,CGGGGTAGCT,0.989 ± 0.035
22,TTCTTTGGGT,0.947 ± 0.036

row,Sequence,switch fluorescence ratio
1,GAGAAAGCCC,1 ± 0.015
2,CCTCAGCGGA,3.35 ± 0.42
3,TTACGAACCG,1.23 ± 0.026
4,CTGCCTTGTT,1 ± 0.015
5,TTGCGGCGCT,1.01 ± 0.043
6,GAATTAGGGA,1.01 ± 0.018
7,TTGCTTGGGA,1.04 ± 0.014
8,GCCTAAGGGA,1 ± 0.0063
9,CCCGTATACA,1.206 ± 0.0072
10,AGGACCATGT,1.01 ± 0.02
11,GTCAGGGCGA,0.9931 ± 0.0023
12,AACCTTGTCC,1.61 ± 0.11
13,AGCATGGTTT,1.02 ± 0.029
14,CATGGTGTGT,1.01 ± 0.011
15,ACGCAGGACA,1.35 ± 0.031
16,GCGAAAAGGG,1.024 ± 0.0069
17,GGATGCTGGT,1.04 ± 0.053
18,GATTCATTAG,0.9925 ± 0.0015
19,CAGTCGGTGG,1 ± 0.031
20,AATCTTCATG,0.997 ± 0.044
21,TGAACAGGGG,0.9869 ± 0.0078
22,GAGGTACGGG,0.98966 ± 0.00039

row,Sequence,switch fluorescence ratio
1,AGGGCGTACA,0.992 ± 0.01
2,ATGAGTAGGG,1.018 ± 0.0098
3,GTTGGTCTAC,1.04 ± 0.018
4,TACATGGGCA,1.01 ± 0.044
5,CCTTAGTTTT,0.983 ± 0.022
6,GGGGGATTAT,0.992 ± 0.044
7,TCGGAATGTG,1.01 ± 0.045
8,TTATACCAAT,1.013 ± 0.0022
9,GTGGGGTTGT,0.973 ± 0.022
10,GGCACTATCC,1.09 ± 0.07
11,TTAGGGAGCG,0.996 ± 0.035
12,GGTGTTCGTG,0.985 ± 0.019
13,CAGATGTGTT,0.9728 ± 0.0031
14,GGGGGCCCTG,0.98993 ± 0.0009
15,ATTAAGGGGC,1.02 ± 0.017
16,ACCGCTTTTT,1.11 ± 0.024
17,AAGATATGAT,0.989 ± 0.032
18,TCGGGAGCGT,1.01 ± 0.033
19,GAGGGTATGG,1.014 ± 0.0075
